Measurements taken from US20110311569A1.
Like-named read-outs stand apart in the source and are kept apart here.

Assays:
Experiment in all cases: cell-based or functional assay
[1] = biological target: HIV-1 SF162 Env (parental) (HIV-1 isolate SF162) (UniProt P19551)
[2] = biological target: JR-FL Env N160K/E168K mutant (HIV-1 isolate JR-FL)
[3] = biological target: SF162 Env with CRF01_AE consensus V3 region (HIV-1 isolate SF162; HIV-1 CRF01_AE consensus) (UniProt P19551)
[4] = biological target: SF162 Env with CRF02_AG consensus V3 region (HIV-1 isolate SF162; HIV-1 CRF02_AG consensus) (UniProt P19551)
[5] = biological target: SF162 Env with GKV at positions 167-169 (HIV-1 isolate SF162) (UniProt P19551)
[6] = biological target: SF162 Env with V3 substitution A22T (HIV-1 isolate SF162) (UniProt P19551)
[7] = biological target: SF162 Env with V3 substitution D25E (HIV-1 isolate SF162) (UniProt P19551)
[8] = biological target: SF162 Env with V3 substitution T13H (HIV-1 isolate SF162) (UniProt P19551)
[9] = biological target: SF162 Env with clade A1 consensus V3 region (HIV-1 isolate SF162; HIV-1 clade A1 consensus) (UniProt P19551)
[10] = biological target: SF162 Env with clade B consensus V3 region (identical to that of JR-FL) (HIV-1 isolate SF162; HIV-1 clade B consensus) (UniProt P19551)
[11] = biological target: SF162 Env with clade C consensus V3 region (HIV-1 isolate SF162; HIV-1 clade C consensus) (UniProt P19551)
[12] = biological target: SF162 Env with clade F consensus V3 region (HIV-1 isolate SF162; HIV-1 clade F consensus) (UniProt P19551)
[13] = biological target: SF162 Env with clade H consensus V3 region (HIV-1 isolate SF162; HIV-1 clade H consensus) (UniProt P19551)
[14] = biological target: HIV-1 JR-FL Env (parental) (HIV-1 isolate JR-FL)
[15] = biological target: HIV-1 SF162 Env (parental) (HIV-1 isolate SF162) (UniProt P19551); remark: listed apart in the source
[16] = biological target: JR-FL Env with GK at positions 167-168 (HIV-1 isolate JR-FL)
[17] = biological target: SF162 Env with GKV at positions 167-169 (HIV-1 isolate SF162) (UniProt P19551); remark: listed apart in the source
[18] = biological target: SF162 Env with NI at positions 160-161 (HIV-1 isolate SF162) (UniProt P19551)
[19] = biological target: SF162 Env with NI at positions 160-161 and GKV at positions 167-169 (HIV-1 isolate SF162) (UniProt P19551)
[20] = biological target: SF162 Env with clade B consensus V3 region (identical to that of JR-FL) (HIV-1 isolate SF162; HIV-1 clade B consensus) (UniProt P19551); remark: listed apart in the source
[21] = biological target: chimeric JR-FL Env with the V1/V2 domain of SF162 (HIV-1 isolate JR-FL; HIV-1 isolate SF162) (UniProt P19551)
[22] = biological target: chimeric SF162 Env with the V1/V2 domain of JR-FL (HIV-1 isolate SF162; HIV-1 isolate JR-FL) (UniProt P19551)

Substance: monoclonal antibody 2909
- ND50 (pseudovirus neutralization) [1]: 5.8e-05 µg/mL
- ND50 (pseudovirus neutralization) [2]: < 0.04 ng/mL
- neutralization potency relative to 2F5 [2]: > 140 fold
- neutralization potency relative to 2G12 [2]: > 500 fold
- neutralization potency relative to IgG-b12 [2]: 20 fold
- neutralization potency relative to a pool of potent V3-specific mAbs [2]: 4000 fold
- percent neutralization at 20 ng/ml (% neutralization at 20 ng/ml) [2]: > 99
- ND50 (pseudovirus neutralization) [3]: > 20 µg/mL
- ND50 ratio (fold increase in ND50 over the SF162 sequence) [3]: > 344000 fold
- ND50 (pseudovirus neutralization) [4]: 0.037 µg/mL
- ND50 ratio (fold increase in ND50 over the SF162 sequence) [4]: 637 fold
- fold increase in 2909 concentration required for 50% neutralization, over SF162 [5]: > 1000 fold
- fold increase in ND50 over SF162 [6]: 46 fold
- fold increase in ND50 over SF162 [7]: 2.3 fold
- fold increase in ND50 over SF162 [8]: 8.3 fold
- ND50 (pseudovirus neutralization) [9]: 0.0064 µg/mL
- ND50 ratio (fold increase in ND50 over the SF162 sequence) [9]: 110 fold
- ND50 (pseudovirus neutralization) [10]: 0.051 µg/mL
- ND50 ratio (fold increase in ND50 over the SF162 sequence) [10]: 879 fold
- ND50 (pseudovirus neutralization) [11]: 0.0048 µg/mL
- ND50 ratio (fold increase in ND50 over the SF162 sequence) [11]: 83 fold
- ND50 (pseudovirus neutralization) [12]: 0.0076 µg/mL
- ND50 ratio (fold increase in ND50 over the SF162 sequence) [12]: 131 fold
- ND50 (pseudovirus neutralization) [13]: 0.17 µg/mL
- ND50 ratio (fold increase in ND50 over the SF162 sequence) [13]: 2930 fold
- ND50 (pseudovirus neutralization) [14]: > 10 µg/mL
- ND50 (pseudovirus neutralization) [15]: 0.00049 µg/mL
- ND50 (pseudovirus neutralization) [16]: > 10 µg/mL
- ND50 (pseudovirus neutralization) [17]: 0.54 µg/mL
- ND50 (pseudovirus neutralization) [18]: > 10 µg/mL
- ND50 (pseudovirus neutralization) [19]: > 10 µg/mL
- ND50 (pseudovirus neutralization) [20]: 0.145 µg/mL
- ND50 (pseudovirus neutralization) [21]: 0.065 µg/mL
- ND50 (pseudovirus neutralization) [22]: > 10 µg/mL
